In PMC2566886 (Nucleic Acids Research, 2008):

Target: the molecule itself
Experiment: cross-linking

B1: Xenopus Nudt16 protein (X29) (enzyme, Xenopus laevis)
chain: MAESRSPDRGAKEDKPRPRNISREESLQLEGYKHACHALLHAPSQAKLFDRVPIRRVLLMMMRFDGRLGFPGGFVDTRDISLEEGLKRELEEELGPALATVEVTEDDYRSSQVREHPQKCVTHFYIKELKLEEIERIEAEAVNAKDHGLEVMGLIRVPLYTLRDRVGGLPAFLCNNFIGNSKSQLLYALRSLKLLREDQIQEVLKASHRLQY
stoichiometry N: ≥ 2
